Experimental data reported in patent US20220348934A1, “NON-RIBOSOMAL PEPTIDES AND SYNTHETASES AND METHODS OF PREPARATION AND USE THEREOF” (VICTORIA LINK LIMITED, priority 2019, published 2022).

B1: A domain from SrfAC: Pro-CATTe construct with the Leu specific A domain from SrfAC substituted (protein)
chain: LAGHLQQIADCVANNPDQPVSTINLVDDREREFLLTGLNPPAQAHETKPLTYWFKEAVNANPDAPALTYSGQTLSYRELDEEANRIARRLQKHGAGKGSVVALYTKRSLELVIGILGVLKAGAAYLPVDPKLPEDRISYMLADSAAACLLTHQEMKEQAAELPYTGTTLFIDDQTRFEEQASDPATAIDPNDPAYIMYTSGTTGKPKGNITTHANIQGLVKHVDYMAFSDQDTFLSVSNYAFDAFTFDFYASMLNAARLIIADEHTLLDTERLTDLILQENVNVMFATTALFNLLTDAGEDWMKGLRCILFGGERASVPHVRKALRIMGPGKLINCYGPTEGTVFATAHVVHDLPDSISSLPIGKPISNASVYILNEQSQLQPFGAVGELCISGMGVSKGYVNRADLTKEKFIENPFKPGETLYRTGDLARWLPDGTIEYAGRIDDQVKIRGHRIELEEIEKQLQEYPGVKDAVVVADRHESGDASINAYLVNRTQLSAEDVKAHLKKQLPAYMVPQTFTFLDELPLTTNGKVNKRLLPKPD
B2: control Pro A domain substitution strain: Pro-CATTe construct carrying the Pro specific A domain from Pro-CAT (TycB module 1), control substitution (protein)
chain: LAGHLQQIADCVANNSGVELCQIPLLTEAETSQLLAKRTETAADYPAATMHELFSRQAEKTPEQVAVVFADQHLTYRELDEKSNQLARFLRKKGIGTGSLVGTLLDRSLDMIVGILGVLKAGGAFVPIDPELPAERIAYMLTHSRVPLVVTQNHLRAKVTTPTETIDINTAVIGEESRAPIESLNQPHDLFYIIYTSGTTGQPKGVMLEHRNMANLMHFTFDQTNIAFHEKVLQYTTCSFDVCYQEIFSTLLSGGQLYLITNELRRHVEKLFAFIQEKQISILSLPVSFLKFIFNEQDYAQSFPRCVKHIITAGEQLVVTHELQKYLRQHRVFLHNHYGPSETHVVTTCTMDPGQAIPELPPIGKPISNTGIYILDEGLQLKPEGIVGELYISGANVGRGYLHQPELTAEKFLDNPYQPGERMYRTGDLALWLPDGQLEFLGRIDHQVKIRGHRIELGEIESRLLNHPAIKEAVVIDRADETGGKFLCAYVVLQKALSDEEMRAYLAQALPEYMIPSFFVTLERIPVTPNGKTDRRALPKPE
B3: A domain from TycC6: Pro-CATTe construct with the Leu specific A domain from the sixth module of TycC substituted (protein)
chain: LAGHLQQIADCVANNPHIRLGEIDMLLPEEKQQILAGFNDTAVSYALDKTLHQLFEEQVDKTPDQAALLFSEQSLTYSELNERANRLARVLRAKGVGPDRLVAIMAERSPEMVIGILGILKAGGAYVPVDPGYPQERIQYLLEDSNAALLLSQAHLLPLLAQVSSELPECLDLNAELDAGLSGSNLPAVNQPTDLAYVIYTSGTTGKPKGVMIPHQGIVNCLQWRRDEYGFGPSDKALQVFSFAFDGFVASLFAPLLGGATCVLPQEAAAKDPVALKKLMAATEVTHYYGVPSLFQAILDCSTTTDFNQLRCVTLGGEKLPVQLVQKTKEKHPAIEINNEYGPTENSVVTTISRSIEAGQAITIGRPLANVQVYIVDEQHHLQPIGVVGELCIGGAGLARGYLNKPELTAEKFVANPFRPGERMYKTGDLVKWRTDGTIEYIGRADEQVKVRGYRIEIGEIESAVLAYQGIDQAVVVARDDDATAGSYLCAYFVAATAVSVSGLRSHLAKELPAYMIPSYFVELDQLPLSANGKVDRKALPKPQ

Tested on: BAP1 strain of E. coli
Test: Dipeptide production by Pro-CATTe A domain substitution constructs co-expressed with Phe-ATE, quantified by HPLC
Format: cell-based
Details: BAP1 E. coli with Phe-ATE plasmid, grown 24 hours in 10 mL M9, absorbance at 214 nm; for D-Phe-L-Leu produced: upstream site X
Source text: The Phe-ATE/Pro-CAT NRPS system originally used by Belshaw et al comprises the first two modules from the NRPS pathway involved in the biosynthesis of tyrocidine in B. brevis (Belshaw et al. 1999). This two-enzyme system was used to infer stringent acceptor site specificity of the C domain within Pro-CAT that precluded incorporation of L-Leu and L-Phe substrates (Belshaw et al. 1999). An A domain substitution plasmid was made based on pET28a containing the C domain from Pro-CAT, restriction sites to insert alternative A domains, and the T-Te domains from SrfAC (SEQ ID NO: 108). […] The Pro specific A domain from Pro-CAT and five additional A domains were selected to insert into the A domain substitution construct. The five additional domains are represented by SEQ ID NOs: 109, 111, 113, 115, 117, 119, and included the Leu specific A domain from SrfAC, three additional Leu specific A domains and a Phe specific A domain.
The DNA sequences of SEQ ID NOs: 109, 111, 113, 115, 117, 119, were digested using NheI and NotI, then ligated into the compatible SpeI and NotI restriction sites of the vector pET28:ProC-TTe (SEQ ID NO: 108). The resulting Pro-CATTe constructs were transformed into a BAP1 strain of E. coli (Pfeifer et al. 2001) along with a second plasmid containing Phe-ATE (SEQ ID NO: 121). The strains were grown for 24 hours in 10 mL of M9, extracted and analysed using established protocols (Gruenewald et al. 2004). The production of dipeptides was quantified using HPLC and absorbance at 214 nm (FIG. 13), and confirmed using mass spectrometry.

Molecule	D-Phe-L-Leu produced	D-Phe-L-Pro DKP synthesised
B1	1.81 mg/L	
B2		7.8 mg/L
B3	3.06 mg/L	
